Laboratory results as given in the domain aggregation screens of Martell et al. (2025).

Assay: soluble fraction after stress (log2 fold change); higher = more stays soluble; pooled small domains, quantitative proteomics
Details: stress: pH 4
Procedure, shortened: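 Following acid stress at pH 4, the amount of each small protein domain still soluble was measured in pooled custom libraries by high-throughput quantitative proteomics. Its fold change, on a log2 scale, is higher when more of the domain stayed soluble. This fold change is taken as a measure of aggregation propensity.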

Row | Sequence | soluble fraction (log2)
1 | HMTGIRVYPNPTSSELRFSVATDAALYDATGARLRVVRGSDMMDIRDLASGTYYVRFADGSTQSVVVT | -0.0136
2 | HMSTKRQKELLEYVDRFITEHGYGPSYREIMNAIGYKSVSTVAIHIDGLIAKGYLRKRDNSARSLEVV | 0.249
3 | HMRNTPQRRHAILALLSEQGEVSVDALAKRFSTSEVTIRKDLAAMESHGLLLRRYGGAVPMPQELI | 0.0719
4 | HMEPVQFIQFKIPDGHPWSGQLLREVRLPPGTLVVLLKHDGKNIIPNGETPLLAGDSVILSAASPT | -0.459
5 | HMKNQIGFKIKNARRKASISQADLSAKLGISSSYLNLIESGKRNVNVDLLLKVSDVLNIELKDLSK | -0.437
6 | HMKDVVAPMSGRVVRLMVAAGDEVVKRQALVVVEAMKMENVLTAPKEGRIKKVPVREGMTVEVGQTLVSFE | -0.274
7 | HMPLNRFLNLPHEDKERVLLIAKKQFSTHGYDAMSLNLLLKELDISKGQFYYWFEDKADLFFTVL | 0.0543
8 | HMNREIVVYITGAVDNPGLYRLPLDSRLDDVLKLAVLSTNADREVLNPAQKLKDGQKIVVPYIVE | -0.452
9 | HMRPEVALSSRELEILEALATGKSNKELAQRLFISEATVKTHLIHIYQKLGVDTRTAAVTVARERKL | -0.431
10 | HMEDVLVTQIIQLKHVDANDMKTLFTPLLSRGSSQLLAYPQSNVLIITDTRSNIKKITEILDIIDKS | -0.838
11 | HMHTGLAELTDRERDVLRLIATGMTNAAIGSALAYSPSTIRADTVSIYRKLEVRGRAEAAAVAVAAGLTQP | 0.123
12 | HMKRANGTGSVFKLNGKRRNPWVARVTQGFDDKGRQKYVNLGYYKTKREAENELLSYNSNPYDAN | -0.0271
13 | HMIMGTITKRTNPSGAIVYRAQIRIKKAGYPDFSESRTFSKKAMAVEWLKLREAELEMHPELLFR | 0.0366
14 | HMDDFVEIDGKKYEIDMSFDNILRLFDLLKDKSLNDVTKIETGLIMLIDDSLDDYDTEEKADIFVQIF | 0.22
15 | HMGPEAFPVPYVVDIELDRAIYVIEQSGFIVGQKLEANDNNVPRGFVISQNPPAGTKLGPESIVDLVVSS | -0.281
16 | HMDEPGAGYKWREDVLLRVMASHGIEESLRDDFVRHAVGFDNDDNMYLKKVEIENAAAAWVAN | -1.36
17 | HMGSIDYLVGSRLRQYRRLRGYSLIEFSAMLHRSKSAISKYERGEVSIDLRTLNEMARLLDIPLSGLLL | -0.283
18 | HMETQVKVPNVVGMTQSKAIAKLKESKLDYEVQEQKHDGDKGKVVDQSEAEGTYVDRGTKVIIYVSTGE | ≥ 0.43
19 | HMREWPLWEIFIRGQHGLNHRHVGSLHAPDAAMAIGNARDVYTRRNEGVSIWAVRSADVVASVPSE | -1.44

Row | Sequence | soluble fraction (log2)
20 | HMYVKKSSFVKKSLNNYEFKITDNTNDLLIFYKGMLPDLFREEQGIVVEGLIDKNNNIVASKV | -0.0152
21 | HMDIYLDEVNRKILHLLSQGIKTRSLREYINLSMSAIEKRKKHMKELFLVEDGKDETLLNEARNKGF | -0.64
22 | HMKIPIIYQPLKNAKRIKIYIPYELKELRTIFKKINTTFWHPNQKLWSIIYTQENVALIKNLFGKNYKIVN | -0.0514
23 | HMTEFFNMQDMFYFKLTGDVTSKERRQSLGKILGIGYGNAAQMVSRLNNYGITKEEFTNAINEIEKQMEAG | -0.511
24 | HMRIVQTDYRNFLSQVESGAVRSVQIDETQIRYTALDSGGKEIVYNTGKVDDPGLVNRLYDAGVEFSQVIP | -1.23
25 | HMAESTRSRILNAAIEMMETGGESSVRLSAIAEALGIKEPSIYHHFTNRTELVNAAYIEWYW | -0.63
26 | HMDRMMQPETWGRVYQWITDDPQVPDREEVLTLIKYHYGDFGKLMKLLHRLNEGKAWTYLSEHIFPRM | -0.698
27 | HMNINLDINTYTVKELEKLLKLEVPYSDNNVFEKKNLMVKMIQTSTIAETKKEELYIFLDNIYNRLTNNLE | -0.942
28 | HMPAERLSMRKIYEILRLKYGHGLSNREVALSVSVSRSTVADYLLRAQAAGLSWPLPDGLDETGLEQRLFP | -0.572
29 | HMQMSPREKMIYSFIESHPGTKSGEIAEKLNVPLPTVKRILSEMVSGNFIAKHGSGIGTNYSTEK | ≥ 0.43
30 | HMFIMQTVALGSEGPDVRALQSILNRIGYNAGTVDGIFGSRTRQAVIAFQRNNGLAADGVAGPATWG | -0.0509
31 | HMDDILAYEIEDKEDLENLSLGKSIGINLNKLIKPTLNSFDNSLLFLSKKGNIISYGKLNGDLFKPKKVL | -0.454
32 | HMSQRITYTEFVQMVKDDKVEKVEVGANQYNITPKSDDKTLVKMTYYTGFIKDENLLDLLNKHKVEIDGYI | 0.169
33 | HMALPDWLDPEAWAAWKRHRKAIRKPLTEDAVALSIRELAKLRDEGYGPTSVIENAILKGWQGLYPPK | 0.143
34 | HMALPQPDDDRQDTKKRILDMAEDLLLTRGFNAFSYQHISSELGMKNAAIHYHYPKKNDLGVAVIQRYRRR | -0.178
35 | HMYSLGPKERSIVSFIANRPGSRSGQIAKSLQIPLPTIKRILNGLVENKVIARHGIGAGTNYVVEDQA | 0.0323
36 | HMDSLSGQQGRVLEEINGFLQTGKVLLNGMEWSAVSKQPEDILPVDTEVVVVRVEGAHLVVKKA | -0.488
37 | HMLKPIHKDWSPNGDAKEILLKAGITEEFIQKELPEFIMYWSERNEESDIWNSKFIAHIRRRWGRFS | -1.23
38 | HMIDFDEQGNLWVHEMGPRHGDELNLIEKARNYGYPTVSQGDHYSGVKISNHEDIPIFKSPEKAWVPAISP | -0.373
